Source: paper PMC12713027

Target: NAA15-mCherry (rice (Oryza sativa, japonica cultivar Zhonghua 11))
Assay: FRET or BRET; FLIM-FRET in rice protoplasts, donor NAA10-eGFP and acceptor NAA15-mCherry co-expressed with pRTV-RESIS, 16 h after transfection

mean fluorescence lifetime of the donor (co-expressed with RESIS): 2.45 ns
Substance: NAA10-eGFP (natural protein)
